Test results: US20250019450A1 (DIAGONAL THERAPEUTICS, published 2025)
Where a chain is given by its changes, count along the chain named. Values belong to the binder of their own block, whether it stands above or below them.

Experiments:
[1] = biological target: T1, cyno IL-12RB2 overexpressed on 293T cells (Example 2) (cyno, UniProt A0A2K5VNI7 24-860); test: FACS, hybridoma supernatant, 293T
T1 construct: whole, on cells
T1 sequence: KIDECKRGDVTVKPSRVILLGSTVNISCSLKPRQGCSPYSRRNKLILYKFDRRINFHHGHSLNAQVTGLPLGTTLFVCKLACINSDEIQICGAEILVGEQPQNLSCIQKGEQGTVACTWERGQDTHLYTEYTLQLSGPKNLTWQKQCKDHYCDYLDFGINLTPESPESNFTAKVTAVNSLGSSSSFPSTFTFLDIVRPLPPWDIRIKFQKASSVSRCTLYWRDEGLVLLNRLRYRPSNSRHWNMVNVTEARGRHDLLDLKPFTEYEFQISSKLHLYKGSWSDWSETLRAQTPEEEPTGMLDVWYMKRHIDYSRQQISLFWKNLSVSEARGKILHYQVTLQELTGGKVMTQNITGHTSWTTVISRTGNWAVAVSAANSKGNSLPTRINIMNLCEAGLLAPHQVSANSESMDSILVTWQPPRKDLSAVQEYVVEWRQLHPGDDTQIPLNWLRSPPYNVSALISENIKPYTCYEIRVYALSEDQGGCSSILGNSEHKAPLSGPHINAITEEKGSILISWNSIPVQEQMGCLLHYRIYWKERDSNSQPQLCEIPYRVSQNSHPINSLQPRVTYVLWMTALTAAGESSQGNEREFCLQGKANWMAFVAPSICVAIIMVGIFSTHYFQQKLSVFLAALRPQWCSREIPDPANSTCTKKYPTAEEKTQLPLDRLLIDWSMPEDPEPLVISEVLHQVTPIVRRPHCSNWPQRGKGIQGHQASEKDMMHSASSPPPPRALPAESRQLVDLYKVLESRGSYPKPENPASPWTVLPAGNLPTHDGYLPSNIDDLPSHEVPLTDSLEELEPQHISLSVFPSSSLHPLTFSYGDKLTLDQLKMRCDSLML

[2] = biological target: T2, human IL-12RB2 overexpressed on 293T cells (Example 2) (human, UniProt Q99665 24-862); test: FACS, hybridoma supernatant, 293T
T2 construct: whole, on cells
T2 sequence (looked up): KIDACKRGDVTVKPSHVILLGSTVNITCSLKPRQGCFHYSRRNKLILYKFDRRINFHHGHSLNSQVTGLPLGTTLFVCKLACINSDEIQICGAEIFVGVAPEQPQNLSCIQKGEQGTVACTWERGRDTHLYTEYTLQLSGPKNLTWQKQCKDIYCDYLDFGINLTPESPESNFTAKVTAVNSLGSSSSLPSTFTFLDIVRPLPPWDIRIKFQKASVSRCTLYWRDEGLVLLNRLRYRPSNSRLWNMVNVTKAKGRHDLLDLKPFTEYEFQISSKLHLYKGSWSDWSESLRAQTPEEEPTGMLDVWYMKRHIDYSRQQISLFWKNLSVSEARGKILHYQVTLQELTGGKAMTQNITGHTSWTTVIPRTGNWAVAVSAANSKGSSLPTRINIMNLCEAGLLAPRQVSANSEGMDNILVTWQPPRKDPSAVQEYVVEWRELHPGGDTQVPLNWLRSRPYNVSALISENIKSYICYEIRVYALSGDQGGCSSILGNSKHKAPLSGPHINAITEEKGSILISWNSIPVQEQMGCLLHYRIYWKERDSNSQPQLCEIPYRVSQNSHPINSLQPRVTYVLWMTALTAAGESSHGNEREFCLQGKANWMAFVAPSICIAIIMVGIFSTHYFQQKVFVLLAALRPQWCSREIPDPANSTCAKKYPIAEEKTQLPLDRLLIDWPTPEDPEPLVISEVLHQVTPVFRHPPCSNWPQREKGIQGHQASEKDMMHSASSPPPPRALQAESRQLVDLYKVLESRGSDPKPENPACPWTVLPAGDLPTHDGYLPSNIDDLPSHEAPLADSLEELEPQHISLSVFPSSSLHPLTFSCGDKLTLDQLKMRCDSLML

[3] = biological target: T3, IL-12 receptor endogenously expressed on THP-1 cells (UniProt P42701 24-662; Q99665 24-862); test: FACS, hybridoma supernatant, THP-1
T3 construct: whole, on cells

B1: 85802_02K15 (antibody, V domains shown)
VH: EVQLVQSGTEVKKPGESLKISCKGSGYSFTSYWIGWVRQMPGKGLEWMGNIYPGDSDTRYSPSFQGHVTISADKSISTAYLQWSSLKASDTAMYYCARRGGGYWGQGTLVTVSS
VL: not shown
notes: also called 85802_02K15A
Fold over parental 293T [1]: 6 fold
Fold over parental 293T [2]: 3.3 fold
Fold over buffer [3]: 53 fold

B2: 85802_06H06 (antibody, V domains shown)
VH: QVHLQESGPGLVKPSETLSLTCTVSGGSISYYYWNWIRQPPGKGLEWIASIYNSGNINYNPSLKSRVTISVDTSKNQFSLKLTSVTAADTAVYYCARGGYSYGYFDNWGQGILVTVSS
VL: SYELTQPPSVSVSPGQTASITCSGRELGNKYAYWYQQKPGQSPVLVIYEDYKRPSGIPERFSGSNSGNTATLTISGTQAMDEADYYCQAWDSSTVIFGGGTKLTVL
notes: also called 85802_06H06A
Fold over parental 293T [1]: 10 fold
Fold over parental 293T [2]: 2.9 fold
Fold over buffer [3]: 34 fold

B3: 85802_06F06 (antibody, V domains shown)
VH: QVQLQESGPGLVKPSETLSLTCTVSGGSISSYYWSWIRQPPGKGLEWFGYIYDSGSTNYNPSLKSRVTISVDTSKNQFSLKLSSVTAADTAVYYCARGSYFWYFDLWGRGTLVTVSS
VL: B2 VL with R25D, E26K, N29A, Y33S, Q36H, E49Q, Y51T, I96V
notes: also called 85802_06F06A
Fold over parental 293T [1]: 14 fold
Fold over parental 293T [2]: 3.3 fold
Fold over buffer [3]: 35 fold

B4: 85802_06A17 (antibody, V domains shown)
VH: EVQLVQSGAEVKKPGESLKISCKGSGYSFTSYWIGWVRQMPGKGLECMGIIYPGDSDTRYSPSFQGQVTISADKSISTAYLQWSSLKASDTAMYYCARHEGAYWYFDLWGRGTLVTVSS
VL: QSVLTQPPSVSGAPGQRVTISCTGSSSNIGAGYDVHWYQQLPGTAPKVLIYGNSNRPSGVPDRFSGSKSGTSASLAITGLQAEDEADYYCQSLDTSHVVFGGGTKLTVL
notes: also called 85802_06A17A
Fold over parental 293T [1]: 11 fold
Fold over parental 293T [2]: 2.8 fold
Fold over buffer [3]: 28 fold

B5: 85802_08F20 (antibody, V domains shown)
VH: QVQLVQSGAEVKKPGASVKVSCKASGYTFIGYYIHWVRQAPGQGLEWMGWINPHSGGTNYAQKFQGRVTMTRDTSISTAYMELSRLRSDDTAIYYCTKEANNWGYAFDIWGQGTMVTVSS
VL: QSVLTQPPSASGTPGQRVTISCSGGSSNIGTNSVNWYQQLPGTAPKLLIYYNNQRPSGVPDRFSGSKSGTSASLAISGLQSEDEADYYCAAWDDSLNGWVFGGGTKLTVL
notes: also called 85802_08F20A
Fold over parental 293T [1]: 8 fold
Fold over parental 293T [2]: 3.4 fold
Fold over buffer [3]: 21 fold

Other lines, results leading:

Fold over parental 293T [1]: 13 fold
Fold over parental 293T [2]: 3.3 fold
Fold over buffer [3]: 27 fold
B6: 85802_10K12 (antibody, V domains shown)
VH: QVTLRESGPALVKPTQTLTLTCTFSGFSLSTSGMCVSWIRQPPGKALEWLALIYWDDDKYYSTSLKTRLTISKDTSKNQVVLTMTNMDPVDTATYYCARMRRGIEAFDIWGQGTMVTVFS
VL: QSVLTQPPSVSGAPGQRVTISCTGSSSNIGAGYDVHWYQQLPGTAPKLLIFGYSNRPSGVPVRFSGSKSGTSASLAITGLLAEDEADFYCQSFDISLTGWVFGGGTKLTVL
notes: also called 85802_10K12A

Fold over parental 293T [1]: 12 fold
Fold over parental 293T [2]: 3.8 fold
Fold over buffer [3]: 21 fold
B7: 85802_10M17 (antibody, V domains shown)
VH: EVLLVESGGGLVKPGGSLRLSCAASGFTFSSYSMNWVRQAPGKGLEWVSSISSSSDYIHYADSVRGRFTISRDNAKNSLYLQMNSLRAEDTAVYYCARSELGFDYWGQGTLVTVSS
VL: DIQMTQSPSSVSASVGDRVTITCRASQGISIWLAWYQQKPGKAPKPLIYAASSLQSGVPSRFSGSGSGTDFTLTISSLQPEDFATYYCQQANSFPLTFGGGTKVEIK
notes: also called 85802_10M17A
